Measured values published in paper PMC4284786, “Refolded scFv Antibody Fragment against Myoglobin Shows Rapid Reaction Kinetics” (International Journal of Molecular Sciences, 2014).

T1: human myoglobin (human, UniProt P02144 1-154)
T1 chain: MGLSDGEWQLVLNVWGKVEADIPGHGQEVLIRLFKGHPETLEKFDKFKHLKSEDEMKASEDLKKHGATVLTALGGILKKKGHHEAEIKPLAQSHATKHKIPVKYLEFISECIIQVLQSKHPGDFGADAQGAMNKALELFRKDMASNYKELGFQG

T2: myoglobin peptide, aa 144–154 (Homo sapiens, UniProt P02144)
T2 construct: also called C-terminal region of the myoglobin peptide; source: synthetic peptide
T2 chain: ASNYKELGFQG

B1: parent premature antibody Myo2-7Ds (whole IgG) (antibody, V domains shown)
VH: QIQLVQSGPELKKPGETVKISCKASGYTFTDYSIHWVRQAPEKGLKWMGWINTETGEPTYADDFTGRFAFSLETSASTAYLQITNLKNEDTATYFCARRFTTTTWFAYWGQGTLVTVSA
VL: DVLMTQTPLSLPVSLGDQASISCRSSQNIVHSSGNTYLEWYLQKPGQSPRFLIYKVSNRFSGVPDRFSGSGSGTDFTLKISRVEAEDLGVYYCFQGSHVPYTFGGGTKLEIK
notes: as the VH of m1; constant part of the heavy chain; as the VL of m1; constant part of the light chain; IgG; The variable regions were the template of the scFv m1; also called IgG2-7Ds; parental antibody
B2: refolded scFv-Myo2-7Ds (scFv, V domains shown)
VH: QIQLVQSGPELKKPGETVKISCKASGYTFTDYSIHWVRQAPEKGLKWMGWINTETGEPTYADDFTGRFAFSLETSASTAYLQITNLKNEDTATYFCARRFTTTTWFAYWGQGTLVTVSA
VL: DVLMTQTPLSLPVSLGDQASISCRSSQNIVHSSGNTYLEWYLQKPGQSPRFLIYKVSNRFSGVPDRFSGSGSGTDFTLKISRVEAEDLGVYYCFQGSHVPYTFGGGTKLEIK
notes: VH of the monoclonal antibody Myo2-7Ds; (GGGGS) x 3 linker between VH and VL; VL of the monoclonal antibody Myo2-7Ds; Plasmid pET28a-scFv-Myo2-7Ds6xH, no pelB leader; A TEV cleavage site stands between the N-terminal His6 tag and the scFv; no cleavage is reported; The abstract gives the order VH-VL, but both printed primers seem to encode ends of a light chain; also called 2-7ds …

Assays:
human myoglobin [1] = target: T1, human myoglobin; assay: BLI
human myoglobin [2] = target: T1, human myoglobin; assay: BLI
equine myoglobin = target: T3, equine myoglobin (Equus caballus, UniProt P68082); assay: ELISA; proteins coated on a 96-well plate (human myoglobin 5 μg/mL in carbonate buffer pH 9.6, 4 °C, 16 h), blocked with BSA in PBST; scFv or premature antibody added for 1 h at 37 °C; scFv detected by anti-6x His tag antibody and HRP-conjugated secondary antibody; scFv 1.9 μg/mL, IgG2-7Ds 0.5 μg/mL in the comparison of proteins; conditions: both partners purified
T3 construct: myoglobin, equine

conalbumin = target: T4, conalbumin (Gallus gallus (assumed), UniProt P02789); assay: as above; conditions: both partners purified
T4 construct: conalbumin (ovotransferrin)

[3] = target: T2, myoglobin peptide, aa 144–154; assay: ELISA; synthetic peptides of human myoglobin and human cardiac troponin I; scFv 1.9 μg/mL, IgG2-7Ds 0.5 μg/mL; conditions: both partners purified
human myoglobin [4] = target: T5, human myoglobin (Homo sapiens, UniProt P02144); assay: BLI; Octet Red; human myoglobin (5 μg/mL in PBS, pH 7.4) immobilised on APS sensor tip at 30 °C for 900 s, blocked with 0.5% casein in PBS; scFv in casein-PBS; BSA as negative control; conditions: both partners purified
T5 construct: myoglobin, human; also called myoglobin antigen; human myoglobin antigen

T4 sequence (P02789 20-705): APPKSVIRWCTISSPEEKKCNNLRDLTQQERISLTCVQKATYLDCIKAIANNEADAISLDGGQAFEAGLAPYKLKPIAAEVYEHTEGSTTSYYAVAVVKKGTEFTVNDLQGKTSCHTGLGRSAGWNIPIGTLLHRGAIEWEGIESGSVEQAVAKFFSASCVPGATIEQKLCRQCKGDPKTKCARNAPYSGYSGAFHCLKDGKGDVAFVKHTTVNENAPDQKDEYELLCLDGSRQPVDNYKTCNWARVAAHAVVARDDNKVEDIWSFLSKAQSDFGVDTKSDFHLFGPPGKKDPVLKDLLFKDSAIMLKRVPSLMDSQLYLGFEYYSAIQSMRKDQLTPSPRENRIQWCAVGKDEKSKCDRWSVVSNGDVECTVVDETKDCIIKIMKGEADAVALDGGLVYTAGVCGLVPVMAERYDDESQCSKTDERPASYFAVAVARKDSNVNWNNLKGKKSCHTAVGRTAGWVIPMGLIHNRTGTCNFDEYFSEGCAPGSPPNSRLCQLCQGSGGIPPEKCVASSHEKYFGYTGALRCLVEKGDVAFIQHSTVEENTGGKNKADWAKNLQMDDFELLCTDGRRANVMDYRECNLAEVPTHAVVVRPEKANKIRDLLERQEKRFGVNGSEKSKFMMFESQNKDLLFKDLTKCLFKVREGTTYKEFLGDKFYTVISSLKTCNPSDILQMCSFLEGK
T3 sequence (P68082 whole entry): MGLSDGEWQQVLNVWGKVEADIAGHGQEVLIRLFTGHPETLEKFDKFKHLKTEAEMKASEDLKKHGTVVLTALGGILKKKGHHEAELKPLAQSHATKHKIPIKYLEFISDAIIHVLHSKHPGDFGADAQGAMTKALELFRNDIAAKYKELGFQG

| koff (human myoglobin [1]) [s⁻¹] | Kd (human myoglobin [2]) [nM] | binding result (equine myoglobin) | binding result (conalbumin) | binding result [3] | Kd (human myoglobin [4]) [nM] | koff (human myoglobin [4]) [s⁻¹] | kon (human myoglobin [4]) [M⁻¹ s⁻¹] | Binder |
| --- | --- | --- | --- | --- | --- | --- | --- | --- |
| 0.0104 | 2.89 | binds | no binding (tested: IgG2-7Ds 0.5 μg/mL) | – | – | – | – | B1 |
| – | 61.1 | binds | no binding (tested: scFv 1.9 μg/mL) | binds | 10 | 0.00629 | 93200 | B2 |
